How the values were obtained:
[1] = target: huCTLA4 (Homo sapiens, UniProt P16410); test: Flow binding to CHO cells stably expressing CTLA4; design: huCTLA4 and huPD-L1, full-length mammalian surface expression constructs were generated; expressed in transfected cells; host or cells: CHO cells, lentiviral transduction, sorted to >98% purity; conditions: for CTLA4 MFI at 33.3 nM: CHO cells stably expressing CTLA4
Outline: (§1)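 Flow cytometry on transfected CHO cells or CD28+ Jurkat/IL2 reporter cells, blocked 20 min in PBS/1% BSA/0.1% azide. Fusion protein 45 min on ice; PE anti-human Fc 1:150, 30 min on ice; fixed in 2% formaldehyde. Read-out PE MFI, EC50 calculated.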

[2] = target: T1, CD28 (Homo sapiens, UniProt P10747); test: Jurkat/IL2 + CHO/OKT3 +/- PD-L1 reporter assay: PD-L1-dependent CD28 costimulation; format: cell-based; design: host or cells: Jurkat cells expressing an IL-2-luciferase reporter; conditions: Jurkat/IL2 + CHO/OKT3/PD-L1; for Fold Increase over WT CD80-IgV-Fe: 5.0 nM
Outline: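 Jurkat reporter cells (100,000/well) preincubated 15 min at room temperature with test protein, then cocultured 5 h at 37 °C with CHO aAPCs bearing anti-CD3 scFv (OKT3) with or without PD-L1. Luciferase luminescence (RLU) read after lysis-substrate addition.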

[3] = target: T1, CD28; test: Flow binding to Jurkat/IL2 reporter cells (CD28); design: host or cells: Jurkat cells expressing an IL-2-luciferase reporter; conditions: for CD28 MFI at 33.3 nM: Jurkats (CD28)
Outline: as §1

[4] = target: huPD-L1 (Homo sapiens, UniProt Q9NZQ7); test: Flow binding to CHO cells stably expressing PD-L1; design: huCTLA4 and huPD-L1, full-length mammalian surface expression constructs were generated; expressed in transfected cells; host or cells: CHO cells, lentiviral transduction, sorted to >98% purity; conditions: for PD-L1 MFI at 33.3 nM: CHO cells stably expressing PD-L1; for Ratio of PDL1:CD28: ratio of MFI at 33.3 nM
Outline: as §1

[5] = Table E19, MFI at 33.3 nM relative to WT CD80 ECD-Fc (Abcam)
[6] = Table E20, MFI at 33.3 nM relative to CD80 WT IgV-Fc

Chain of huCTLA4 (P16410 36-223): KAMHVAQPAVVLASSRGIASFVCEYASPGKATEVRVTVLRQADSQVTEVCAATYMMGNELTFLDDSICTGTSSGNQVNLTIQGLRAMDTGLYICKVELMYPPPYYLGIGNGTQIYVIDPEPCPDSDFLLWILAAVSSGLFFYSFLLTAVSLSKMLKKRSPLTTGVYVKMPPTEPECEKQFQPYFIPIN
Chain of huPD-L1 (Q9NZQ7 19-290): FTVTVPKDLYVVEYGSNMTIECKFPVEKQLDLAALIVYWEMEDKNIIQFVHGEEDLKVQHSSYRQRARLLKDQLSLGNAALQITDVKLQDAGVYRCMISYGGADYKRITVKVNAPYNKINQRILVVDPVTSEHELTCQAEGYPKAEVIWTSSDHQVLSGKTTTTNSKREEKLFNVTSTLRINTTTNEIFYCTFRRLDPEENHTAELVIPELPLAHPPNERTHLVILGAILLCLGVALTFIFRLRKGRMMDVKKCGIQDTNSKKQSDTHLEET

| CTLA4 MFI at 33.3 nM ([1]; Table E19) | CTLA4 Fold change to WT CD80 [1, 5] [fold] | Fold Increase over WT CD80-IgV-Fe ([2]; Table E21) [fold] | Relative Luciferase Units (RLU), CD80 Conc 5.0 nM ([2]; Table E21) [RLU] | CD28 MFI at 33.3 nM ([3]; Table E19) | CD28 Fold change to WT CD80 [3, 5] [fold] | PD-L1 MFI at 33.3 nM ([4]; Table E19) | PD-L1 Fold change to WT CD80 [4, 5] [fold] | Ratio of PDL1:CD28 ([4]; Table E19) | CTLA4 MFI at 33.3 nM ([1]; Table E20) | CTLA4 Fold change to WT CD80 [1, 6] [fold] | Fold Increase over WT CD80-IgV-Fe ([2]; Table E22) [fold] | Relative Luciferase Units (RLU), CD80 Conc 5.0 nM ([2]; Table E22) [RLU] | CD28 MFI at 33.3 nM ([3]; Table E20) | CD28 Fold change to WT CD80 [3, 6] [fold] | PD-L1 MFI at 33.3 nM ([4]; Table E20) | PD-L1 Fold change to WT CD80 [4, 6] [fold] | Ratio of PDL1:CD28 ([4]; Table E20) | Molecule |
| --- | --- | --- | --- | --- | --- | --- | --- | --- | --- | --- | --- | --- | --- | --- | --- | --- | --- | --- |
| 36463 | 0.9 | 8.5 | 980 | 331 | 0.5 | 26290 | 205.4 | 79.4 |  |  |  |  |  |  |  |  |  | E35D/D46V/M47V/V68M/L85Q (protein) VIHVTKEVKEVATLSCGHNVSVEELAQTRIYWQKDKKMVLTMMSGVVNIWPEYKNRTIFDITNNLSIMILALRPSDEGTYECVVQKYEKDAFKREHLAEVTLSVKAD |
| 26104 | 0.6 | 7.9 | 907 | 118 | 0.2 | 10479 | 81.9 | 88.8 |  |  |  |  |  |  |  |  |  | E35D/M47V/N48K/V68M/L85Q (protein) VIHVTKEVKEVATLSCGHNVSVEELAQTRIYWQKDKKMVLTMMSGDVKIWPEYKNRTIFDITNNLSIMILALRPSDEGTYECVVQKYEKDAFKREHLAEVTLSVKAD |
|  |  |  |  |  |  |  |  |  | 21955 | 16.2 | 2.12 | 827 | 1955 | 44.5 | 13204 | 302.8 | 6.8 | A26E/M47L/A71G/D90G (protein) VIHVTKEVKEVATLSCGHNVSVEELEQTRIYWQKEKKMVLTMMSGDLNIWPEYKNRTIFDITNNLSIVILGLRPSDEGTYECVVLKYEKGAFKREHLAEVTLSVKAD |
|  |  |  |  |  |  |  |  |  | 17418 | 12.8 | 1.98 | 771 | 3610 | 82.2 | 31114 | 713.6 | 8.6 | M47L/V68M/A71G/D90G (protein) VIHVTKEVKEVATLSCGHNVSVEELAQTRIYWQKEKKMVLTMMSGDLNIWPEYKNRTIFDITNNLSIMILGLRPSDEGTYECVVLKYEKGAFKREHLAEVTLSVKAD |
|  |  |  |  |  |  |  |  |  | 22321 | 16.4 | 2.04 | 797 | 3414 | 77.8 | 30670 | 703.4 | 9.0 | H18Y/V68M/A71G/D90G (protein) VIHVTKEVKEVATLSCGYNVSVEELAQTRIYWQKEKKMVLTMMSGDMNIWPEYKNRTIFDITNNLSIMILGLRPSDEGTYECVVLKYEKGAFKREHLAEVTLSVKAD |
|  |  |  |  |  |  |  |  |  | 13879 | 10.2 | 2.23 | 871 | 1683 | 38.3 | 6987 | 160.3 | 4.2 | A26E/E35D/V68M/D90G (protein) VIHVTKEVKEVATLSCGHNVSVEELEQTRIYWQKDKKMVLTMMSGDMNIWPEYKNRTIFDITNNLSIMILALRPSDEGTYECVVLKYEKGAFKREHLAEVTLSVKAD |
|  |  |  |  |  |  |  |  |  | 23990 | 17.7 | 3.10 | 1208 | 324 | 7.4 | 9951 | 228.2 | 30.7 | H18Y/A26E/E35D/M47L (protein) VIHVTKEVKEVATLSCGYNVSVEELEQTRIYWQKDKKMVLTMMSGDLNIWPEYKNRTIFDITNNLSIVILALRPSDEGTYECVVLKYEKDAFKREHLAEVTLSVKAD |
|  |  |  |  |  |  |  |  |  | 18167 | 13.4 | 2.16 | 843 | 1550 | 35.3 | 9577 | 219.7 | 6.2 | A26E/E35D/M47L/D90G (protein) VIHVTKEVKEVATLSCGHNVSVEELEQTRIYWQKDKKMVLTMMSGDLNIWPEYKNRTIFDITNNLSIVILALRPSDEGTYECVVLKYEKGAFKREHLAEVTLSVKAD |
|  |  |  |  |  |  |  |  |  | 27607 | 20.3 | 1.82 | 711 | 3414 | 77.8 | 23482 | 538.6 | 6.9 | E35D/M47L/V68M/D90G (protein) VIHVTKEVKEVATLSCGHNVSVEELAQTRIYWQKDKKMVLTMMSGDLNIWPEYKNRTIFDITNNLSIMILALRPSDEGTYECVVLKYEKGAFKREHLAEVTLSVKAD |
| 30276 | 0.7 | 7.4 | 854 | 246 | 0.3 | 12085 | 94.4 | 49.1 |  |  |  |  |  |  |  |  |  | E35D/M47V/V68M/L85Q/K89N (protein) VIHVTKEVKEVATLSCGHNVSVEELAQTRIYWQKDKKMVLTMMSGDVNIWPEYKNRTIFDITNNLSIMILALRPSDEGTYECVVQKYENDAFKREHLAEVTLSVKAD |
|  |  |  |  |  |  |  |  |  | 20921 | 15.4 | 2.01 | 784 | 1331 | 30.3 | 12073 | 276.9 | 9.1 | E35D/M47L/A71G/D90G (protein) VIHVTKEVKEVATLSCGHNVSVEELAQTRIYWQKDKKMVLTMMSGDLNIWPEYKNRTIFDITNNLSIVILGLRPSDEGTYECVVLKYEKGAFKREHLAEVTLSVKAD |

— patent US20220177587A1, “METHODS AND USES OF VARIANT CD80 FUSION PROTEINS AND RELATED CONSTRUCTS” (Alpine Immune Sciences, Inc., priority 2018, published 2022)
